Laboratory results from the supplement of paper PMC7125110.
± gives the standard error. This sample holds only a part of the variants without activity.

B1: glmS ribozyme (parent)
chain: AUAAAAGCGCCAGAACUACAGAAAUGUAGUUGACGAGGAGGAGGUUUAUCGAAUUUUCGGCGGAUGCCUCCAAA

Assays:
Settings in all cases: with glucosamine-6-phosphate
glucosamine-6-phosphate [1] = variants of: B1; assay: self-cleavage kobs at 640 uM GlcN6P; higher = faster cleavage; RNA array
Procedure, shortened: (§1)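 Weighted Michaelis–Menten fits across concentrations supplied kcat and KM, based on kobs from one- or two-exponential decay fits to normalised per-tile medians. The data came from barcoded ribozyme variants transcribed in situ by E. coli RNA polymerase on sequenced MiSeq chips and tracked at 37 °C by a hybridised Cy3 probe. Glucosamine-6-phosphate (40 μM to 10 mM) in HEPES/KCl/Mg(OAc)2 buffer was flowed in.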

glucosamine-6-phosphate [2] = variants of: B1; assay: self-cleavage kobs at 2500 uM GlcN6P; higher = faster cleavage; RNA array
Procedure, shortened: as §1

glucosamine-6-phosphate [3] = variants of: B1; assay: self-cleavage kobs at 10000 uM GlcN6P; higher = faster cleavage; RNA array
Procedure, shortened: as §1

Variant | self-cleavage kobs at 640 uM GlcN6P (glucosamine-6-phosphate [1]) [s⁻¹] | self-cleavage kobs at 2500 uM GlcN6P (glucosamine-6-phosphate [2]) [s⁻¹] | self-cleavage kobs at 10000 uM GlcN6P (glucosamine-6-phosphate [3]) [s⁻¹]
C8A U30C G51U | < 1e-05 | – | –
G37A U54C C70U | 0.000626 ± 0.00016 | 0.00117 ± 0.00025 | –
G13U G40A G43C U49C C68G | < 1e-05 | – | –
C61G G62A | < 1e-05 | < 1e-05 | –
C10U G43U U45G | < 1e-05 | < 1e-05 | –
A42G G43A U46G G66U | < 1e-05 | < 1e-05 | –
G40A U57C C58A C61U | < 1e-05 | – | –
A12G A39C G41U U47A A48U C61U A64U | < 1e-05 | < 1e-05 | –
A33U A42G C68A | < 1e-05 | < 1e-05 | –
G38C G41U C67U | < 1e-05 | – | –
A33U C34G U49A A53U | < 1e-05 | – | < 1e-05
A53U C58U C67U | 9.41e-05 ± 4.6e-05 | – | –
A15U U45A G66U | 4.46e-05 ± 1.6e-05 | – | –
A15C U31C A33G G38A | < 1e-05 | – | < 1e-05
G9U A15C A42U | < 1e-05 | – | –
U31A A36C G37U U49C | < 1e-05 | – | –
A39C U56C | 0.00018 ± 3.3e-05 | 0.000456 ± 0.00015 | 0.00101 ± 0.00021
C10U A12C G40A | < 1e-05 | < 1e-05 | –
G32C U47G G59C | < 1e-05 | < 1e-05 | –
G35C A36U G38A | < 1e-05 | – | –
A12C A15U A39G | 0.000865 ± 0.00025 | 0.00201 ± 0.00075 | 0.003 ± 0.00075
A42G G43A G44C | < 1e-05 | < 1e-05 | –

Variant | self-cleavage kobs at 640 uM GlcN6P (glucosamine-6-phosphate [1]) [s⁻¹] | self-cleavage kobs at 2500 uM GlcN6P (glucosamine-6-phosphate [2]) [s⁻¹] | self-cleavage kobs at 10000 uM GlcN6P (glucosamine-6-phosphate [3]) [s⁻¹]
G51U U56A G63U | < 1e-05 | < 1e-05 | –
G13A U30G G41U U46C G63C | < 1e-05 | < 1e-05 | –
G37A U55G C70U | 0.000222 ± 4.2e-05 | 0.000106 ± 3e-05 | –
U30A A33G A36C | < 1e-05 | – | –
C11A G32U C70G | 0.000101 ± 4.4e-05 | – | –
C11G A14U A36U U46A C61G G63A | < 1e-05 | < 1e-05 | –
A6C A14G A36G A52C | < 1e-05 | < 1e-05 | –
G13C G37U G43C | < 1e-05 | < 1e-05 | –
G38C U56G C58U | < 1e-05 | – | –
G7C C8G C10U C70G | 0.000355 ± 0.0001 | – | –
C16G G35C U55A U56A | < 1e-05 | < 1e-05 | –
C10A G62U C70G | 9.92e-05 ± 3.7e-05 | 0.000143 ± 4.8e-05 | –
C8G C58U G59C C61U C67G | < 1e-05 | < 1e-05 | –
A39U G41U U56G | 6.4e-05 ± 1.9e-05 | 0.000106 ± 2.3e-05 | –
A6G U31A A36G A48U | < 1e-05 | – | –
G13A U54C C70U | 9.94e-05 ± 2.2e-05 | 0.000291 ± 9.6e-05 | –
A4C G32U U47G | 8.66e-05 ± 2.2e-05 | 0.000118 ± 3.5e-05 | –
G38A A42G G62U | < 1e-05 | – | –
C8G G43A C67A | < 1e-05 | – | –
G29U A48U C61U | < 1e-05 | – | –
C58A C61G C68U | 0.000169 ± 7.3e-05 | – | –
A48G C50G C58G | 0.000184 ± 8.1e-05 | – | –

Variant | self-cleavage kobs at 640 uM GlcN6P (glucosamine-6-phosphate [1]) [s⁻¹] | self-cleavage kobs at 2500 uM GlcN6P (glucosamine-6-phosphate [2]) [s⁻¹] | self-cleavage kobs at 10000 uM GlcN6P (glucosamine-6-phosphate [3]) [s⁻¹]
A6U U45A C50G U65G U69G | < 1e-05 | – | –
C10A A64U U69G | 0.000351 ± 0.00014 | – | –
A6G G9U C58A | < 1e-05 | < 1e-05 | < 1e-05
A14C G35U C61A | < 1e-05 | – | –
C8A A12C G13A | < 1e-05 | – | –
A6G G37A G41A | < 1e-05 | < 1e-05 | < 1e-05
A12G A15C G40U | < 1e-05 | – | –
C8A U55G G63U | < 1e-05 | – | –
A39U A42C A53U C58U | < 1e-05 | < 1e-05 | –
U31A A39C C50G C71A | < 1e-05 | < 1e-05 | < 1e-05
C11G C50A A52G | < 1e-05 | – | –
C34G A39C U46A | < 1e-05 | – | –
C11G G13C A48G | < 1e-05 | < 1e-05 | –
G7A A15U G51C A64G | < 1e-05 | – | –
C16A A42C C71U | < 1e-05 | < 1e-05 | –
G9A G62U G66U | < 1e-05 | < 1e-05 | –
A15U C50A C68U | 7.76e-05 ± 2.5e-05 | – | –
A6C A53U C58U | < 1e-05 | < 1e-05 | –
G44A A48U U56G | < 1e-05 | < 1e-05 | –
U55G G62A G63U | < 1e-05 | – | < 1e-05
C58U A64C C71A | < 1e-05 | – | –
G7U A39G U47C G59C | < 1e-05 | – | –
